Drawing on article PMC2755957 (The Journal of Biological Chemistry, 2009), this text covers Kd, Km and Vmax for twelve molecules.

Numbering of substitutions follows the chain as printed. Names may count otherwise.

Series [1] addresses T1, mouse Δ1–24-L-PGDS (lipocalin type prostaglandin D synthase) (Mus musculus, UniProt O09114, S45A/S81A/T67A).
T1 sequence (O09114 25-189 S45A/T67A/S81A): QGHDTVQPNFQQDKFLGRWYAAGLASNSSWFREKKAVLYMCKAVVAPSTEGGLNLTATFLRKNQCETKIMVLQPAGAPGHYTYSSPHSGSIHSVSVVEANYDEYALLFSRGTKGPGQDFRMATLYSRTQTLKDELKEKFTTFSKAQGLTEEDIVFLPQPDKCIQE
The series is described as follows: biochemical.

Substrate in series [2]: [H][C@]12C[C@]([H])(OO1)[C@H](C/C=C\CCCC(=O)O)[C@H]2/C=C/[C@@H](O)CCCCC
In words: purified protein, by the assay type. The settings on record: pH 8.0; 25.0 °C.

As to `CC1=C(/C=C/C(C)=C/C=C/C(C)=C/C(=O)O)C(C)(C)CCC1` [all-trans-retinoic acid], in series [1], binding was put at a Kd of 418 ± 124 nM.

B1: mouse Δ1–24-L-PGDS (lipocalin type prostaglandin D synthase) (Mus musculus; W54A) (protein)
chain: T1 sequence (O09114 25-189 S45A/T67A/S81A) with A21S, W30A, A43T, A57S
As for B1, in series [2], the Km (commonly the concentration of substrate that gives half-maximal velocity) stood at 1.3 ± 0.5 µM and the Vmax – broadly, the rate approached at saturating substrate – came to 3.6 µmol/min/mg.

B2: mouse Δ1–24-L-PGDS (lipocalin type prostaglandin D synthase) (Mus musculus; T67A) (protein)
chain: T1 sequence (O09114 25-189 S45A/T67A/S81A) with A21S, A57S
Take B2: in series [2], the Km came to 2.8 ± 0.9 µM and the Vmax turned out to be 2.8 µmol/min/mg.

B3: mouse Δ1–24-L-PGDS (lipocalin type prostaglandin D synthase) (Mus musculus; H111A) (protein)
chain: T1 sequence (O09114 25-189 S45A/T67A/S81A) with A21S, A43T, A57S, H87A
As to B3, in series [2], the Km is 1.4 ± 0.4 µM and the maximal velocity (Vmax) was 5.1 µmol/min/mg.

B4: mouse Δ1–24-L-PGDS (lipocalin type prostaglandin D synthase) (Mus musculus; S45A/S81A/T67A) (protein)
chain: T1 sequence (O09114 25-189 S45A/T67A/S81A)
In the case of B4, in series [2], the Km is 1.2 ± 0.1 µM and the Vmax amounted to 0.5 µmol/min/mg.

B5: mouse Δ1–24-L-PGDS (lipocalin type prostaglandin D synthase) (Mus musculus; S45A) (protein)
chain: T1 sequence (O09114 25-189 S45A/T67A/S81A) with A43T, A57S
B5: in series [2], the Km was 0.5 ± 0.2 µM and the maximum rate (Vmax) was found to be 2.3 µmol/min/mg.

B6: mouse Δ1–24-L-PGDS (lipocalin type prostaglandin D synthase) (Mus musculus; S81A) (protein)
chain: T1 sequence (O09114 25-189 S45A/T67A/S81A) with A21S, A43T
On to B6, for which, in series [2], the Km worked out at 1.5 ± 0.4 µM and the Vmax is 4.7 µmol/min/mg.

B7: mouse Δ1–24-L-PGDS (lipocalin type prostaglandin D synthase) (Mus musculus; H116A) (protein)
chain: T1 sequence (O09114 25-189 S45A/T67A/S81A) with A21S, A43T, A57S, H92A
For the molecule B7, in series [2], the Michaelis constant (Km) stood at 1.4 ± 0.1 µM and the maximal velocity (Vmax) was determined as 4.4 µmol/min/mg.

B8: Δ^1–24-L-PGDS + P110A (Mus musculus; P110A) (protein)
chain: MAALRMLWMGLVLLGLLGFPQTPAQGHDTVQPNFQQDKFLGRWYSAGLASNSSWFREKKAVLYMCKTVVAPSTEGGLNLTSTFLRKNQCETKIMVLQPAGAPGHYTYSSAHSGSIHSVSVVEANYDEYALLFSRGTKGPGQDFRMATLYSRTQTLKDELKEKFTTFSKAQGLTEEDIVFLPQPDKCIQE
For B8, in series [2], the Km was determined as 1.6 ± 0.5 µM and the Vmax came to 4.8 µmol/min/mg.

B9: Δ^1–24-L-PGDS + T67A/S81A (Mus musculus; S81A/T67A) (protein)
chain: B8 chain with T67A, S81A, A110P
For B9, in series [2], the Km is 2.1 ± 0.2 µM and the Vmax is 1.3 µmol/min/mg.

B10: Δ^1–24-L-PGDS + S45A/T67A (Mus musculus; S45A/T67A) (protein)
chain: B8 chain with S45A, T67A, A110P
In the case of B10, in series [2], the Km stood at 2.1 ± 0.6 µM and the maximal velocity (Vmax) is 1.6 µmol/min/mg.

B11: Δ^1–24-L-PGDS + S45A/S81A (Mus musculus; S45A/S81A) (protein)
chain: B8 chain with S45A, S81A, A110P
Regarding B11, in series [2], the Km was determined as 1.2 ± 0.3 µM and the Vmax was 1.5 µmol/min/mg.
